The values below come from patent US20130079286A1 (Pieris, published 2013).

In assay [1] the target is T1, biotinylated Aβ40 peptide (human, C-terminal biotin group attached via a lysine spacer).
T1 construct: Synthetic peptide (Peptide Speciality Laboratory) with a C-terminal biotin on a lysine spacer; used in the capture ELISAs
The experiment in a line: capture ELISA: mutein captured via Strep-tag II, biotinylated Aβ40 titrated. Here is the method: (§1) FIG. 19 depicts the binding activity of the Lcn2 muteins H1GA, H1GV, and H1-G1 in capture ELISAs with the biotinylated Aβ targets Aβ40 (A) and Trx-Aβ28 (B). StrepMAB-Immo was immobilized at 10 μg/ml on microtitre plates and employed for capturing of 1 μM Lcn2 muteins via the Strep-tag H. Binding of the biotinylated targets, applied in a dilution series, was then detected by incubation with ExtrAvidin/AP and a subsequent chromogenic reaction with pNPP. […] The data were fitted to a monovalent binding model.

The target in another assay is T2, Trx-Aβ28 fusion protein (Escherichia coli (strain K12), UniProt P0AA25 1-76 = thioredoxin, Biotin-labelled through an NHS ester (2:1) in the capture and competitive ELISAs; unlabeled in the direct ELISA and as competitor.).
T2 construct: the entry may be a nucleic acid; also called TrxAbeta28H6
The experiment in a line: capture ELISA: mutein captured via Strep-tag II, biotinylated Trx-Aβ28 titrated. As to the method:
as §1

Assay [2] concerns the target T3, MBP-Aβ40 fusion protein.
T3 construct: the entry may be a nucleic acid; Biotin-labelled in the capture ELISA, unlabeled in the direct ELISA and SPR; also called MBP-Abeta40
Briefly: SPR (Biacore X, FIG. 20), MBP-Aβ40 immobilised, H1GV injected; the table marks the row '* dissociation time not sufficiently long'. Here is the method:
(§2) FIG. 20 depicts the kinetic real time analysis of Lcn2 muteins H1GA (A) and H1GV (B) measured on a Biacore X instrument at a flow rate of 20 μl/min. The MBP-Aβ40 fusion protein was coupled via amine chemistry to a CMD 2001 chip (ΔRU=1316) and each of the purified Lcn2 muteins was applied in a series at varying concentrations. The measured signal is shown as a grey line while the curve fit is depicted as a black line in each case.
(§3) Real time analysis of the interaction between Lcn2 muteins H1GA or H1GV and MBP-Aβ40 (SEQ ID NO: 33) was performed on a Biacore X system using PBS/T (4 mM KH₂PO₄, 16 mM Na₂HPO₄, 115 mM NaCl, pH 7.4 containing 0.005% (v/v) Tween 20) as running buffer. A 15 μg/mL solution of MBP-Aβ40 from Example 2 in 10 mM Na-acetate, pH 4.5 was immobilized onto a CMD 200I chip (Xantec, Düsseldorf, Germany) using standard amine coupling chemistry, resulting in a ligand density of 1316 resonance units (RU). The purified Lcn2 muteins H1GA and H1GV from Example 20 were applied in concentrations ranging from 4 nM to 128 nM at a flow rate of 20 μL/min. The data were double-referenced by subtraction of the corresponding signals measured for the control channel, which had been activated and blocked with ethanolamine, as well as subtraction of the measured signals for an average of buffer injections.

The target in a further assay is T4, ovalbumin (UniProt P01012 2-386).
T4 sequence (looked up): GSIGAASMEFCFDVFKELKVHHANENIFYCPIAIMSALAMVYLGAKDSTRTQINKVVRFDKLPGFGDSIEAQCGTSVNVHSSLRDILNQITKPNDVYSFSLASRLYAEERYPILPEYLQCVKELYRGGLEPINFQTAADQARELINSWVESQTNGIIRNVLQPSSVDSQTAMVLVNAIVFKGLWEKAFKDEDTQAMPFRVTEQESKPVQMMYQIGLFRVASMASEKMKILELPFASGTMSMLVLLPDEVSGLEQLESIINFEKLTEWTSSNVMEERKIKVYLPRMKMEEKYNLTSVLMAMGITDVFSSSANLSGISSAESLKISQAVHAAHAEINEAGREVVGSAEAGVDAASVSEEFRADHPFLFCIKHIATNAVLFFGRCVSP
Briefly: capture ELISA.

The target in assay [3] is T3, MBP-Aβ40 fusion protein. Briefly: SPR (Biacore X), MBP-Aβ40 amine-coupled (1316 RU), mutein as analyte. Here is the method:
as §2, §3

The target of assay [4] is T5, Aβ40 peptide, non-labeled (human).
T5 construct: Non-labeled synthetic peptide (W. M. Keck Laboratory); also called Abeta40; amyloid beta peptide
Briefly: SPR (Biacore T100), Aβ40 amine-coupled on CM5 (325 RU), dissociation 7200 s. As to the method: (§4) FIG. 21 depicts the kinetic real time analysis of the Lcn2 mutein H1GA measured on a Biacore T100 instrument with immobilized Aβ40 using an extended dissociation time for a trace measured at high concentration. The target peptide Aβ40 was coupled via amine chemistry onto the Biacore CM5 chip (ΔRU=325), and the purified Lcn2 mutein H1GA was applied at a flow rate of 30 μl/min. For exact determination of the low koff rate, dissociation was performed for 7200 s at the highest concentration tested. kon rates were determined using the dilution series of the Lcn2 mutein H1GA with both association and dissociation times of 300 s.
(§5) Real time analysis of the interaction between the Lcn2 mutein H1GA and Aβ40 (SEQ ID NO: 29) was performed on a Biacore T100 system (Biacore, Uppsala, Sweden) using PBS/P (4 mM KH₂PO₄, 16 mM Na₂HPO₄, 115 mM NaCl, pH 7.4 containing 0.005% (v/v) Surfactant P20) as running buffer. […] For exact determination of the low koff rate the highest concentration was analysed using a dissociation time of 7200 s. The data were double-referenced as in Example 21. kₒₙ and koff for the binding reaction were determined from the entire data set using Biacore T100 Evaluation Software V2.0.3 for data processing and kinetic fitting. […]

Assay [5] addresses T5, Aβ40 peptide, non-labeled. Briefly: SPR (Biacore T100), Aβ40 amine-coupled on CM5 (325 RU), mutein as analyte. As to the method:
as §4, §5

The target of assay [6] is T3, MBP-Aβ40 fusion protein. The experiment in a line: SPR (Biacore X, FIG. 20), MBP-Aβ40 immobilised, H1GA injected; the table marks the row '* dissociation time not sufficiently long'. Here is the method:
as §2, §3

Assay [7] addresses T6, recombinant human fibronectin fragment FN789 (human, UniProt P02751 1173-1539).
T6 construct: the entry may be a nucleic acid
Briefly: ELISA on coated protein.

The target of another assay is T7, BSA (bovine, UniProt P02769 25-607).
T7 construct: also called bovine serum albumin
Briefly: ELISA on coated protein.

In assay [8] the target is T8, recombinant human fibronectin fragment FN7B8 (human, UniProt P02751 1173-1448).
T8 construct: no separate number is printed for the protein, so the entry may be a nucleic acid
Briefly: SPR (BIAcore X), FN7B8 amine-coupled (about 500 RU), mutein as analyte. From the text:
FIG. 13 depicts the kinetic real time analysis of Lcn2 mutein N9B measured on a Biacore instrument. FN7B8 was coupled via amine chemistry to a CMD 200 m sensor chip (ΔRU=500) and the purified Lcn2 mutein was applied at varying concentrations. The measured signal is shown as a grey line whereas the curve fit is depicted as a black line in each case.
FIG. 14 depicts the kinetic real time analysis of Lcn2 mutein N7E measured on a Biacore instrument. FN7B8 was coupled via amine chemistry to a CMD 200 m sensor chip (ΔRU=500) and the purified Lcn2 mutein was applied at varying concentrations. The measured signal is shown as a grey line whereas the curve fit is depicted as a black line in each case.
Real time analysis of Lcn2 muteins was performed on a BIAcore X system (BIAcore, Uppsala, Sweden) using HBS/ET (20 mM Hepes, pH 7.5, 150 mM NaCl, 1 mM EDTA containing 0.005% (v/v) Tween 20) as running buffer. 200 μg/ml solution of recombinant FN7B8 in 10 mM Na-acetate, pH 4.0 was immobilized on a CMD 200 m Sensorchip (XanTec bioanalytics, Duesseldorf, Germany) using standard amine coupling chemistry (Biacore, Uppsala, Sweden), resulting in a ligand density of about 500 resonance units (RU). The purified Lcn2 mutein was applied at a flow rate of 25 μl/min at concentrations of 2.5 up to 160 nM. The sensorgrams were corrected by subtraction of the corresponding signals measured for the control channel, which had been activated and blocked with ethanolamine.

For assay [9], the target named is T9, recombinant fibronectin single domain ED-B (human).
T9 construct: the entry may be a nucleic acid; also called extra domain-B; extra-domain B
Briefly: SPR (BIAcore X), ED-B immobilised by amine coupling, Lcn2 mutein injected at 0 to 80 nM, 1:1 model. Here is the method: (§6) FIG. 27 depicts the kinetic real time analysis of Lcn2 variants N7A (A), N7E (B), N9B (C) and N10D (D) measured on a Biacore X instrument. The single fibronectin domain ED-B was coupled via amine chemistry to a CMD 200 m sensor chip (ΔRU=180) and the purified Lcn2 variants were applied at varying concentrations. The measured signals are shown as traces together with the curve fits.
Real time interaction analysis of Lcn2 muteins was performed on a BIAcore X instrument using HBS/ET (20 mM Hepes, pH 7.5, 150 mM NaCl, 1 mM EDTA containing 0.005% (v/v) Tween 20) as running buffer. 100 μg/ml solution of recombinant ED-B in 10 mM Na-acetate, pH 4.0 was immobilized on a CMD 200 m Sensorchip using standard amine coupling chemistry, resulting in a ligand density of about 180 resonance units (RU). […] The sensorgrams were corrected by subtraction of the corresponding signals measured for the control channel, which had been activated and blocked with ethanolamine. […] In the case of N10D the heterogeneous analyte competing reaction model was used for data fitting, resulting in two sets of kinetic constants.

For assay [10], the target named is T9, recombinant fibronectin single domain …. The experiment in a line: SPR (BIAcore X), ED-B amine-coupled (about 180 RU), mutein as analyte. Here is the method: as §6
Real time interaction analysis of Lcn2 muteins was performed on a BIAcore X instrument using HBS/ET (20 mM Hepes, pH 7.5, 150 mM NaCl, 1 mM EDTA containing 0.005% (v/v) Tween 20) as running buffer. 100 μg/ml solution of recombinant ED-B in 10 mM Na-acetate, pH 4.0 was immobilized on a CMD 200 m Sensorchip using standard amine coupling chemistry, resulting in a ligand density of about 180 resonance units (RU). The purified Lcn2 mutein was applied at a flow rate of 25 μl/min at concentrations of 2.5 up to 160 nM. The sensorgrams were corrected by subtraction of the corresponding signals measured for the control channel, which had been activated and blocked with ethanolamine. […] In the case of N10D the heterogeneous analyte competing reaction model was used for data fitting, resulting in two sets of kinetic constants.

Assay [11] has as its target T8, recombinant human fibronectin fragment …. Briefly: ELISA: FN7B8 coated, mutein titrated, detected via Strep-tag II.

T8 sequence (P02751 other isoform, or with tags, fused parts or gaps limits assumed): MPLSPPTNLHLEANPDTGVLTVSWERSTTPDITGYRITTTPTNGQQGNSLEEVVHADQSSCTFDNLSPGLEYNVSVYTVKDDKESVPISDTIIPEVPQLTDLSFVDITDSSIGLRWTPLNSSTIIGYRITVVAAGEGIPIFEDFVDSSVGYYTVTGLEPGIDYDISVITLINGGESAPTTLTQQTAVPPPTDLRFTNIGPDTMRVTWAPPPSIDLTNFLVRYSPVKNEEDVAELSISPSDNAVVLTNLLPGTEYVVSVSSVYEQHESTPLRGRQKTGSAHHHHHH
T9 sequence (chain, as listed by the source limits assumed): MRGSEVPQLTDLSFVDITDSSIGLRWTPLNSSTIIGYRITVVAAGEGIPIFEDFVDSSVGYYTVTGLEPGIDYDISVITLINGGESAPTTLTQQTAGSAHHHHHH
T5 sequence (peptide, as listed by the source): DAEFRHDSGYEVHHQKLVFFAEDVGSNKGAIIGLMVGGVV
T1 sequence (peptide, as listed by the source): as above
T6 sequence (P02751 other isoform, or with tags, fused parts or gaps limits assumed): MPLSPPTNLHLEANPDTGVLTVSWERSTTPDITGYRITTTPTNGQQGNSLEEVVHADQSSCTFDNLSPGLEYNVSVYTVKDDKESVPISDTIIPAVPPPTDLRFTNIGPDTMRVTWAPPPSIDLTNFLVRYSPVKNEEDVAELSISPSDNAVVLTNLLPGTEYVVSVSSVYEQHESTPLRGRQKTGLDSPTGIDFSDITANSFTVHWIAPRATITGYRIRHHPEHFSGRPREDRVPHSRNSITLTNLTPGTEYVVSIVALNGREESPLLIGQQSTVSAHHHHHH
T7 sequence (P02769 25-607 limits assumed): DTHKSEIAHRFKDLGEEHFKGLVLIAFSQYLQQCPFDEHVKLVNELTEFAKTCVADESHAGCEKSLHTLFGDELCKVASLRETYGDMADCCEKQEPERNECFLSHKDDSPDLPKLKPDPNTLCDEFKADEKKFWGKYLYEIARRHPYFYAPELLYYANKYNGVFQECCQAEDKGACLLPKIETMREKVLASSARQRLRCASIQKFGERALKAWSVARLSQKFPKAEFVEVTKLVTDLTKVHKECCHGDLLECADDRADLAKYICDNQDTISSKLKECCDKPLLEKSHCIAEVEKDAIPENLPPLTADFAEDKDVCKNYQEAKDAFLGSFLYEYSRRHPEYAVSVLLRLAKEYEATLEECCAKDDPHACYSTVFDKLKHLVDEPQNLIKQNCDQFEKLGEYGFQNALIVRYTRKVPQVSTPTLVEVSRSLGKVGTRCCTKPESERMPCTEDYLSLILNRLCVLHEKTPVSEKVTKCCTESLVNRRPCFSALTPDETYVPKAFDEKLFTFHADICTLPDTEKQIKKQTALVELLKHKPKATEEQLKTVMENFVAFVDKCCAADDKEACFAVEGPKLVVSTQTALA

B1: Lcn2 mutein H1GV (designed binder)
chain: QDSTSDLIPAPPLSKVPLQQNFQDNQFHGKWYVVGVAGNVLLREDKDPLKMYATIYELKEDKSYNVTSVGFDDKKCLYKIRTFVPGSQPGEFTLGRIKSEPGGTSWLVRVVSTNYNQHAMVFFKEVAQNRETFNITLYGRTKELTSELKENFIRFSKSLGLPENHIVFPVPIDQCIDG
notes: H1-G1 with Cys36 replaced by Val
Regarding B1, the Kd was 4.9 nM in assay [1], 4.2 nM in the assay with Trx-Aβ28 fusion protein, 1.1 nM with MBP-Aβ40 fusion protein [2] and 1.06 nM in the assay with MBP-Aβ40 fusion protein [3]. In addition, in the assay with ovalbumin, the binding result is given as “no binding”. In the assay with MBP-Aβ40 fusion protein [3], this molecule showed a koff of 7.26e-05 s⁻¹. In the assay with MBP-Aβ40 fusion protein [3], this molecule returned a kon of 68400 M⁻¹ s⁻¹.

B2: Lcn2 mutein H1GA (designed binder)
chain: QDSTSDLIPAPPLSKVPLQQNFQDNQFHGKWYVVGAAGNVLLREDKDPLKMYATIYELKEDKSYNVTSVGFDDKKCLYKIRTFVPGSQPGEFTLGRIKSEPGGTSWLVRVVSTNYNQHAMVFFKEVAQNRETFNITLYGRTKELTSELKENFIRFSKSLGLPENHIVFPVPIDQCIDG
notes: H1-G1 with Cys36 replaced by Ala
Regarding B2, the koff stood at 1.18e-05 s⁻¹ in assay [4] and 2.75e-05 s⁻¹ in the assay with MBP-Aβ40 fusion protein [3]. Further, the Kd in assay [5] came to 0.095 nM; in [1] it was 4.2 nM; in the assay with Trx-Aβ28 fusion protein, 3.8 nM; with MBP-Aβ40 fusion protein [6], 0.48 nM; in the assay with MBP-Aβ40 fusion protein [3] it was 0.476 nM. Further, the kon in [5] turned out to be 125000 M⁻¹ s⁻¹; with MBP-Aβ40 fusion protein [3], 57700 M⁻¹ s⁻¹. The binding result with ovalbumin is given as “no binding”.

B3: Lcn2 mutein N9B (designed binder)
chain: QDSTSDLIPAPPLSKVPLQQNFQDNQFHGKWYVVGRAGNMRLREDKDPAKMVATIYELKEDKSYNVTKVMFQRKKCKYMINTFVPGSQPGEFTLGAIKSPPGPTSTLVRVVSTNYNQHAMVFFKHVFQNREYFHITLYGRTKELTSELKENFIRFSKSLGLPENHIVFPVPIDQCIDG
As to B3, the binding result (in [7]; in the assay with BSA) was “no binding” each time. The Kd stood at 36 nM in assay [8], 5.3 nM in [9], 5.26 nM in [10] and 40.1 nM in [11]. For the same molecule, the off-rate constant (koff) in [8] is 0.075 s⁻¹; in [10], 0.00762 s⁻¹. Besides, the kon turned out to be 2.1e+06 M⁻¹ s⁻¹ in [8] and 1.45e+06 M⁻¹ s⁻¹ in assay [10].
